# Source: paper PMC9063327
# How the values were obtained:
# [1] = substrate: CC(=O)C(=O)O; assay: purified protein; type: biochemical, Lactococcus lactis; conditions: 50 mM potassium phosphate, 1 mM MgSO4, 0.5 mM thiamine pyrophosphate, 0.2 mM NADH; brackets are 95% CI
# [2] = substrate: CC(C)C(=O)C(=O)O; assay: purified protein; type: biochemical, Lactococcus lactis; conditions: 50 mM potassium phosphate, 1 mM MgSO4, 0.5 mM thiamine pyrophosphate, 0.2 mM NADH; brackets are 95% CI
protein,measurement,setting,value
"KivD (Lactococcus lactis subsp. lactis) (protein, full length, pET28a, N-terminal His tag (kept), expressed in E. coli BL21(DE3), Ni-NTA purified; gene from pGEM-kivD) MYTVGDYLLDRLHELGIEEIFGVPGDYNLQFLDQIISHKDMKWVGNANELNASYMADGYARTKKAAAFLTTFGVGELSAVNGLAGSYAENLPVVEIVGSPTSKVQNEGKFVHHTLADGDFKHFMKMHEPVTAARTLLTAENATVEIDRVLSALLKERKPVYINLPVDVAAAKAEKPSLPLKKENSTSNTSDQEILNKIQESLKNAKKPIVITGHEIISFGLEKTVTQFISKTKLPITTLNFGKSSVDEALPSFLGIYNGTLSEPNLKEFVESADFILMLGVKLTDSSTGAFTHHLNENKMISLNIDEGKIFNERIQNFDFESLISSLLDLSEIEYKGKYIDKKQEDFVPSNALLSQDRLWQAVENLTQSNETIVAEQGTSFFGASSIFLKSKSHFIGQPLWGSIGYTFPAALGSQIADKESRHLLFIGDGSLQLTVQELGLAIREKINPICFIINNDGYTVEREIHGPNQSYNDIPMWNYSKLPESFGATEDRVVSKIVRTENEFVSVMKEAQADPNRMYWIELILAKEGAPKVLKKMGKLFAEQNKS",Km,[1],"18.81 (17.15, 20.85) mM"
same,Vmax,[1],"0.0034 (0.0029, 0.0039)"
same,kcat,[1],0.28 s⁻¹
same,kcat/Km,[1],15.1 M⁻¹ s⁻¹
same,Km,[2],"4.18 (4.08, 4.23) mM"
same,Vmax,[2],"0.0409 (0.038, 0.044)"
same,kcat,[2],3.46 s⁻¹
same,kcat/Km,[2],828 M⁻¹ s⁻¹
